Literature values as cited in article PMC7605336.

Molecular target: Spike protein RBD (SARS-CoV-2) (UniProt P0DTC2)

Substance: SBP1 (ACE2 α1 helix-derived 23-mer peptide) α1 helix (from UniProt Q9BYF1)
- Kd: 47 nM
